How the values were obtained:
[1] = test system: NCI-H446 human lung cancer cells; test: Cell surface binding by flow cytometry, NCI-H446 (medium expression); format: cell-based; settings: Cofetuzumab max MFI set at 100%
Procedure: (§1) Certain PTK-7 antibodies of the present disclosure were tested for cell surface binding to three PTK-7 expressing tumor cell lines. Cell lines were selected to represent high, medium, and low receptor densities. OV90-PTK-7, overexpressing engineered ovarian tumor line representing high expression, NCI-H446 human lung cancer cells representing medium endogenous expression and OVCAR-3 human ovarian cancer cells representing low endogenous expression. […] OV90 parental cells and Namalwa-luc-GFP cells were selected as the PTK-7 negative cell lines. Antibody binding was quantified via flow cytometry and both the EC50 of the binding curves and the maximum binding MFI for each antibody were recorded.
(§2) Cells were dissociated using non-enzymatic dissociation buffer for 5 min at 37° C. Cells were counted and aliquoted to a V-bottom polypropylene 96-well plate at 10^5 cells/well. Cells were centrifuged at 1800 rpm×3 min and the supernatant discarded. […]
(§3) Cells were acquired on an Attune Cytpix Cytometer and FCS files generated using Attune™ Cytometric Software (v. 6.0.1). FCS files were then analyzed on FlowJo (v10.8.1). […] Finally, dead cells positive for staining with Zombie Green were excluded and the MFIs of live, Alexa647 positive cells were quantified. Data was graphed and analyzed on GraphPad Prism (v10.1.1).

[2] = test system: HeLa PTK-7-eGFP overexpressing engineered cells; test: Internalization / lysosomal trafficking by pHrodo fluorescence imaging; format: cell-based, human; settings: 6 μg/ml (40 nM)
Procedure: Single clone HeLa PTK-7-eGFP overexpressing engineered cells were plated at 5,000 cells per well in a 384-well plate (PhenoPlate 384-well, black, optically clear flat-bottom, tissue-culture treated, PerkinElmer 6057308) in complete culture medium (DMEM, +10% FBS+Glutamax+Pen/Strep). Next day, the cells were treated with 6 μg/ml (40 nM) ADCs or antibodies and pHrodo labeling reagent (Zenon™ pHrodo™ iFL IgG labeling reagents, Catalog number: Z25612, Invitrogen™) with concentration of 6 μg/mL (120 nM). The ADCs or antibodies was mixed with pHrodo labeling reagent for at least 10 min prior to adding to the cells. Then, the cells were imaged using the Opera Phenix Plus high-content screening system every 90 min up to 24 hours. Data were processed and analyzed in Harmony and Microsoft Excel and graphed in GraphPad Prism.

[3] = test system: OV90-PTK-7; test: Cell surface binding by flow cytometry, OV90-PTK-7 (high expression); format: cell-based, human; settings: Cofetuzumab max MFI set at 100%
Procedure: as §1, §2, §3

[4] = test system: OVCAR-3 human ovarian cancer cells; test: Cell surface binding by flow cytometry, OVCAR3 (low expression); format: cell-based; settings: Cofetuzumab max MFI set at 100%
Procedure: as §1, §2, §3

[5] = test system: OV90-human PTK7 cells; test: In vitro CDC assay with human serum complement; format: cell-based; settings: PTK-7 expressing OV90 cell line, 3 hours
Procedure: OV90 cell line was engineered to express high level of human PTK7, having antibody binding capacity of 500,000 (using MESF quantification kit, Bangs Laboratories). OV90-human PTK7 cells were added in white clear-bottom 96-well tissue culture plates in assay medium (1:1 MCDB105/Medium199+1×GlutaMax+15% Heat Inactivated Fetal Bovine Serum) and incubated in the incubator at 37° C. with 5% CO2 overnight. Next day, 50 μL/well antibodies were added at final working concentration from 200 nM, 1:3 serially diluted in assay medium and incubated at 37° C. with 5% CO2 for one hour. Diluted human serum complement (1:3) was then added at 50 μL/well in assay medium and incubated at 37° C. with 5% CO2 for 3 hours. Plate was read using CellTiter-Glo Luminescent Cell Viability Assay. 100 μL/well CellTiter-Glo reagent were incubated in plates at room temperature for 10 min. Luminescence was read on a SpectraMax M5e. RLUs (Relative Light Units) were obtained with SoftMax Pro 5.4. Percentage of cell killing was calculated against no treatment. Data was graphed and analyzed using GraphPad Prism version 9.5.1.

[6] = test system: Namalwa-Luc-GFP cells co-cultured with OV90-PTK-7; test: Bystander effect on Namalwa-Luc-GFP co-cultured with OV90-PTK-7 (ONE-Glo); format: cell-based; settings: OV90-PTK-7 + Namalwa-Luc-GFP, ratio 2:1; 5-days treatment; Namalwa-Luc-GFP killing
Procedure: (§4) In flat clear bottom 96-well plates, OV90-PTK-7: Namalwa-Luc-GFP clone cells were mixed and seeded at a total of 3000 cells/well/100 μL with a ratio of 2:1 in culture medium (1:1 MCDB105: Medium 199+15% Heat Inactivated Fetal Bovine Serum+1×Glutamax). Namalwa-Luc-GFP cells were negative for PTK-7 expression. Plates were incubated at 37° C. with 5% CO2 overnight. Next day, ADCs were added at final working concentration from 50 nM, 1:4 serially diluted in culture medium. Plates were covered with Breathe-Easy® sealing membrane. Plates were read after 5-days treatment using ONE-Glo™ Luciferase Assay System. 100 μL/well ONE-Glo™ Assay reagent was incubated in plates at room temperature for 10 min. Luminescence was read in the SpectraMax M5e. RLUs (Relative Light Units) were obtained with SoftMax Pro 5.4. Percentage of Namalwa-Luc-GFP killing was calculated against no treatment as 0%. Data was graphed and analyzed using Graphpad Prism version v10.1.1. IC50 was determined via log (inhibitor) vs. response (three parameters) curve fitting for ADC cytotoxicity.

[7] = test system: OVCAR3; test: OVCAR3 tumor xenograft model; format: in vivo, mice; settings: OVCAR3 (Day 61); single intravenous dose 2 mg/kg
Procedure: Tumors were measured biweekly using a digital caliper.

[8] = test system: Namalwa-Luc-GFP cells co-cultured with NCI-H446; test: Bystander effect on Namalwa-Luc-GFP co-cultured with NCI-H446 (ONE-Glo); format: cell-based; settings: ratio 9:1, 7-days treatment, Namalwa-Luc-GFP killing
Procedure: as §4
In flat clear bottom 96-well plates, NCI-H446: Namalwa-Luc-GFP clone cells were mixed and seeded at a total of 5000 cells/well/100 μL with a ratio of 9:1 in culture medium (RPMI 1640+10% Heat Inactivated Fetal Bovine Serum+1× Glutamax+1 mM sodium pyruvate). […] Plates were read after 7-days treatment using ONE-Glo™ Luciferase Assay System.

[9] = test system: OVCAR-3; test: ADC cytotoxicity (CellTiter-Glo) on low PTK-7 expressing cells; format: cell-based, human; settings: 7 days treatment
Procedure: OVCAR3 cells were seeded in white clear-bottom 96-well tissue culture plates in culture medium (OVCAR3: ATCC modified RPMI 1640+1× GlutaMax+20% Heat Inactivated Fetal Bovine Serum+10 μg/mL bovine insulin). Cells were incubated at 37° C. with 5% CO2 overnight. Next day, ADCs were added at final working concentration from 200 nM, 1:4 serially diluted in culture medium. Plates were covered with Breathe-Easy® sealing membrane and incubated at 37° C. with 5% CO2. Plates were read after 7 days treatment using CellTiter-Glo Luminescent Cell Viability Assay. 100 μL/well CellTiter-Glo reagent were incubated in plates at room temperature for 10 min. Luminescence was read in the SpectraMax M5e. RLUs (Relative Light Units) were obtained with SoftMax Pro 5.4. Percentage of cell killing was calculated against no treatment as 0%. Data was graphed and analyzed using Graphpad Prism version v10.1.1. IC50 was determined via log (inhibitor) vs. response-variable slope (four parameters) curve fitting.

B1: Cofetuzumab: humanized anti-PTK-7 IgG1 antibody (hu6M024) with the sequence as disclosed in WO2012112943 (antibody, chains of the INN, looked up, V domains shown)
VH: QVQLVQSGPEVKKPGASVKVSCKASGYTFTDYAVHWVRQAPGKRLEWIGVISTYNDYTYNNQDFKGRVTMTRDTSASTAYMELSRLRSEDTAVYYCARGNSYFYALDYWGQGTSVTVSS
VL: EIVLTQSPATLSLSPGERATLSCRASESVDSYGKSFMHWYQQKPGQAPRLLIYRASNLESGIPARFSGSGSGTDFTLTISSLEPEDFAVYYCQQSNEDPWTFGGGTKLEIK
% of Cofetuzumab (Average Max MFI) [1]: 100% | pHrodo intensity signal at 24 hrs ([2]; Antibodies): 2.44 ± 0.14 | % of Cofetuzumab (Average Max MFI) [3]: 100% | % of Cofetuzumab (Average Max MFI) [4]: 100% | CDC potential [5]: did not show CDC potential

B2: Cofetuzumab-Pelidotin: ADC with a cleavable valine-citrulline linker, auristatin-0101 as the payload with a drug-to-antibody ratio (DAR) of 4 (conjugate, chains of the INN, looked up)
VH: B1 VH
VL: B1 VL
modifications: pelidotin: vc linker, auristatin-0101, DAR 4
IC50 [6]: 1.5 nM | Mean tumor volume [7]: 352.26 mm^3 | pHrodo intensity signal at 24 hrs ([2]; ADCs): 1.71 ± 0.06 | IC50 [8]: 3.18 nM | IC50 [9]: 2.53 nM

B3: Ab1: fully human PTK-7 antibody, human IgG1-AAS (L234A/L235A/D265S), kappa; HC SEQ ID NO: 2, LC SEQ ID NO: 3 (antibody)
heavy: EVQLVESGGGLVKPGGSLRLSCAASGFTFSSYIMNWVRQAPGKGLEWVSSISSSSTFIYYADSVKGRFTISRDNAKNSLYLQMNSLRAEDTAVYYCAKGFDYWGQGTLVTVSSASTKGPSVFPLAPSSKSTSGGTAALGCLVKDYFPEPVTVSWNSGALTSGVHTFPAVLQSSGLYSLSSVVTVPSSSLGTQTYICNVNHKPSNTKVDKRVEPKSCDKTHTCPPCPAPEAAGGPSVFLFPPKPKDTLMISRTPEVTCVVVSVSHEDPEVKFNWYVDGVEVHNAKTKPREEQYNSTYRVVSVLTVLHQDWLNGKEYKCKVSNKALPAPIEKTISKAKGQPREPQVYTLPPSREEMTKNQVSLTCLVKGFYPSDIAVEWESNGQPENNYKTTPPVLDSDGSFFLYSKLTVDKSRWQQGNVFSCSVMHEALHNHYTQKSLSLSPGK
light: DIQLTQSPSFLSASVGDRVTITCRASQDISSYLVWYQQKPGKAPKLLIYAASTLQSGVPSRFSGSGSGTEFTLTISSLQPEDFATYYCQQLNTYPRTFGQGTKVEIKRTVAAPSVFIFPPSDEQLKSGTASVVCLLNNFYPREAKVQWKVDNALQSGNSQESVTEQDSKDSTYSLSSTLTLSKADYEKHKVYACEVTHQGLSSPVTKSFNRGEC
pHrodo intensity signal at 24 hrs ([2]; Antibodies): 3.00 ± 0.1

B4: Ab4: fully human PTK-7 antibody, human IgG1-AAS (L234A/L235A/D265S), kappa; HC SEQ ID NO: 32, LC SEQ ID NO: 33 (antibody)
heavy: EVQLVESGGGLVKPGGSLRLSCAASGFTFSSYSMNWVRQAPGKGLEWVSSIDSSSSFIYYADSVKGRFTISRDNAKNSLYLQMNSLRAEDTAVYYCARGTGLFDFWGQGTLVTVSSASTKGPSVFPLAPSSKSTSGGTAALGCLVKDYFPEPVTVSWNSGALTSGVHTFPAVLQSSGLYSLSSVVTVPSSSLGTQTYICNVNHKPSNTKVDKRVEPKSCDKTHTCPPCPAPEAAGGPSVFLFPPKPKDTLMISRTPEVTCVVVSVSHEDPEVKFNWYVDGVEVHNAKTKPREEQYNSTYRVVSVLTVLHQDWLNGKEYKCKVSNKALPAPIEKTISKAKGQPREPQVYTLPPSREEMTKNQVSLTCLVKGFYPSDIAVEWESNGQPENNYKTTPPVLDSDGSFFLYSKLTVDKSRWQQGNVFSCSVMHEALHNHYTQKSLSLSPGK
light: EIVLTQSPGTLSLSPGERATLSCRASQSFSSSYLAWYQQKPGQAPRLLIYGASSRATGIPDRFSGSGSGTDFTLTISRLEPEDFAVYYCQQYGRTPWTFGQGTKVEIKRTVAAPSVFIFPPSDEQLKSGTASVVCLLNNFYPREAKVQWKVDNALQSGNSQESVTEQDSKDSTYSLSSTLTLSKADYEKHKVYACEVTHQGLSSPVTKSFNRGEC
pHrodo intensity signal at 24 hrs ([2]; Antibodies): 2.83 ± 0.18
